Laboratory results taken from patent US20220389111A1 (SHANGHAI EPIMAB BIOTHERAPEUTICS, published 2022).

T1: human CD39 protein (recombinant) (human, UniProt P49961 38-478, limits assumed)
T1 sequence: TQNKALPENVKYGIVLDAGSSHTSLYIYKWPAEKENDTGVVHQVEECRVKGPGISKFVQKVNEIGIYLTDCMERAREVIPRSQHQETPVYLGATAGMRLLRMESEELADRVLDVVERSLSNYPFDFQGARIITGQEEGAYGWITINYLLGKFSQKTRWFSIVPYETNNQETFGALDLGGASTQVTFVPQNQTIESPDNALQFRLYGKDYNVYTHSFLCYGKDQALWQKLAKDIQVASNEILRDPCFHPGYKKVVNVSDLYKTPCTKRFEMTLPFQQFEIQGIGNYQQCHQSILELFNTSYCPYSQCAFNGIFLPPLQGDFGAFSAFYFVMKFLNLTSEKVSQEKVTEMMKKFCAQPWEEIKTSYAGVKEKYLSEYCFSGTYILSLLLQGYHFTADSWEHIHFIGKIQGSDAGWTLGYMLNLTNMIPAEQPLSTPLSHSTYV


Columns and labels:
[1] = molecular target: T1, human CD39 protein (recombinant); test: cell-based or functional assay
[2] = molecular target: T1, human CD39 protein (recombinant); test: ELISA on coated human CD39 protein
Experimental: To determine if anti-CD39 mAbs bind to human CD39, ELISA plates were incubated overnight at 4° C. with human CD39 protein or mouse CD39 protein diluted in PBS, pH7.4 buffer at 1 μg/ml. Plates were washed four times in washing buffer (PBS containing 0.05% Tween 20), and blocked for 1 hour at 37° C. with 200 μl per well blocking buffer (1% BSA in PBS containing 0.05% Tween 20). After blocking buffer was removed, hybridoma supernatant or diluted purified Abs were added to the wells at 100 μl per well and incubated at 37° C. for 1 hour. The wells were washed four times with washing buffer, and anti-mouse HRP (for mouse anti-human CD39 Ab characterization) or anti-rat HRP (for rat anti-mouse CD39 Ab characterization) (Sigma) were 1:5000 diluted and added to the wells at 100 μl per well. The plates were incubated for 1 hour at 37° C. and washed four times in washing buffer. 100 μl of tetramethylbenzidine (TMB) chromogenic solution were added per well. Following color development, the reaction was stopped with 1N HCl, and absorbance at 450 nm was measured. The data were proceeded by GraphPad software.
Humanized antibodies HuEM04-38-6 to HuEM0004-38-20 and chimeric antibodies EM04-38c, EM004-38c1, and EM0004-38c2 were tested for CD39 specific binding by ELISA as described in Example 1.2 and for inhibition of protein-based ATPase activity as described in Example 1.3.

| Binder | ATPase inhibition IC50 [1] | ATPase inhibition, inhibition % [1] | EC50 [2] |
| --- | --- | --- | --- |
| HuEM0004-38-6 (antibody, human IgG1, kappa, L234A L235A, V domains shown) VH: EVQLVQSGAEVKKPGASVKVSCKASGYTFTSFWMHWVRQAPGQGLEWMGNINPRNGATKYNEKFRSRVTMTADTSISTAYMELSRLRSDDTAVYYCAREDYDEIYYAMDSWGQGTTVTVSS VL: ENVLTQSPATLSLSPGERATLSCSASSSVIYMYWFQQKPGQAPRLLIYDTSNLASGIPARFSGSGSGTDYTLTISSLEPEDFAVYYCQQWSTYPLTFGQGTKLEIKR | 140 nM | 64.1% |  |
| HuEM0004-38-13 (antibody, human IgG1, kappa, L234A L235A, V domains shown, humanized mAb638, human IgG1/kappa) VH: EVQLVQSGAEVKKPGASVKVSCKASGYTFTSFWMHWVRQAPGQGLEWMGNINPRNGATKYNEKFRSRVTLTADKSISTAYMELSRLRSDDTAVYYCAREDYDEIYYAMDSWGQGTTVTVSS VL: ENVLTQSPATLSLSPGERATLSCSASSSVIYMYWFQQKPGQSPRVLIYDTSNLASGIPARFSGSGSGTDYTLTISSLEPEDFAVYYCQQWSTYPLTFGQGTKLEIKR | 36.2 nM | 98.7% | 0.023 µg/mL |
| HuEM0004-38-9 (antibody, human IgG1, kappa, L234A L235A, V domains shown) VH: EVQLVQSGAEVKKPGASVKVSCKASGYTFTSFWMHWVRQAPGQGLEWIGNINPRNGATKYNEKFRSRVTLTADKSISTAYMELSRLRSDDTAVYYCAREDYDEIYYAMDSWGQGTTVTVSS VL: ENVLTQSPATLSLSPGERATLSCSASSSVIYMYWFQQKPGQAPRLLIYDTSNLASGIPARFSGSGSGTDYTLTISSLEPEDFAVYYCQQWSTYPLTFGQGTKLEIKR | 79.6 nM | 61.6% |  |
| HuEM0004-38-8 (antibody, human IgG1, kappa, L234A L235A, V domains shown, humanized mAb638, human IgG1/kappa) VH: EVQLVQSGAEVKKPGASVKVSCKASGYTFTSFWMHWVRQAPGQGLEWMGNINPRNGATKYNEKFRSRVTLTADKSISTAYMELSRLRSDDTAVYYCAREDYDEIYYAMDSWGQGTTVTVSS VL: ENVLTQSPATLSLSPGERATLSCSASSSVIYMYWFQQKPGQAPRLLIYDTSNLASGIPARFSGSGSGTDYTLTISSLEPEDFAVYYCQQWSTYPLTFGQGTKLEIKR | 81.8 nM | 67.9% | 0.097 µg/mL |
| HuEM0004-38-18 (antibody, human IgG1, kappa, L234A L235A, V domains shown, humanized mAb638, human IgG1/kappa) VH: EVQLVQSGAEVKKPGASVKVSCKASGYTFTSFWMHWVRQAPGQGLEWMGNINPRNGATKYNEKFRSRVTLTADKSISTAYMELSRLRSDDTAVYYCAREDYDEIYYAMDSWGQGTTVTVSS VL: ENVLTQSPATLSLSPGERATLSCSASSSVIYMYWFQQKPGQSPRVLIYDTSNLASGVPARFSGSGSGTDYTLTISSLEPEDFAVYYCQQWSTYPLTFGQGTKLEIKR | 18.9 nM | 98.5% | 0.019 µg/mL |
| HuEM0004-38-14 (antibody, human IgG1, kappa, L234A L235A, V domains shown, humanized mAb638, human IgG1/kappa) VH: EVQLVQSGAEVKKPGASVKVSCKASGYTFTSFWMHWVRQAPGQGLEWIGNINPRNGATKYNEKFRSRVTLTADKSISTAYMELSRLRSDDTAVYYCAREDYDEIYYAMDSWGQGTTVTVSS VL: ENVLTQSPATLSLSPGERATLSCSASSSVIYMYWFQQKPGQSPRVLIYDTSNLASGIPARFSGSGSGTDYTLTISSLEPEDFAVYYCQQWSTYPLTFGQGTKLEIKR | 36.9 nM | 98.9% | 0.021 µg/mL |
| HuEM0004-38-19 (antibody, human IgG1, kappa, L234A L235A, V domains shown, humanized mAb638, human IgG1/kappa) VH: EVQLVQSGAEVKKPGASVKVSCKASGYTFTSFWMHWVRQAPGQGLEWIGNINPRNGATKYNEKFRSRVTLTADKSISTAYMELSRLRSDDTAVYYCAREDYDEIYYAMDSWGQGTTVTVSS VL: ENVLTQSPATLSLSPGERATLSCSASSSVIYMYWFQQKPGQSPRVLIYDTSNLASGVPARFSGSGSGTDYTLTISSLEPEDFAVYYCQQWSTYPLTFGQGTKLEIKR | 33.2 nM | 99.2% | 0.02 µg/mL |
| HuEM0004-38-7 (antibody, human IgG1, kappa, L234A L235A, V domains shown, humanized mAb638, human IgG1/kappa) VH: EVQLVQSGAEVKKPGASVKVSCKASGYTFTSFWMHWVRQAPGQGLEWMGNINPRNGATKYNEKFRSRVTMTADKSISTAYMELSRLRSDDTAVYYCAREDYDEIYYAMDSWGQGTTVTVSS VL: ENVLTQSPATLSLSPGERATLSCSASSSVIYMYWFQQKPGQAPRLLIYDTSNLASGIPARFSGSGSGTDYTLTISSLEPEDFAVYYCQQWSTYPLTFGQGTKLEIKR | 83.5 nM | 71.4% | 0.149 µg/mL |
| HuEM0004-38-12 (antibody, human IgG1, kappa, L234A L235A, V domains shown, humanized mAb638, human IgG1/kappa) VH: EVQLVQSGAEVKKPGASVKVSCKASGYTFTSFWMHWVRQAPGQGLEWMGNINPRNGATKYNEKFRSRVTMTADKSISTAYMELSRLRSDDTAVYYCAREDYDEIYYAMDSWGQGTTVTVSS VL: ENVLTQSPATLSLSPGERATLSCSASSSVIYMYWFQQKPGQSPRVLIYDTSNLASGIPARFSGSGSGTDYTLTISSLEPEDFAVYYCQQWSTYPLTFGQGTKLEIKR | 46.9 nM | 103% | 0.023 µg/mL |
| HuEM0004-38-10 (antibody, human IgG1, kappa, L234A L235A, V domains shown, humanized mAb638, human IgG1/kappa) VH: EVQLVQSGAEVKKPGASVKVSCKASGYTFTSFWMHWVRQAPGQGLEWIGNINPRNGATKYNEKFRSKVTLTADKSISTAYMELSRLRSDDTAVYYCAREDYDEIYYAMDSWGQGTTVTVSS VL: ENVLTQSPATLSLSPGERATLSCSASSSVIYMYWFQQKPGQAPRLLIYDTSNLASGIPARFSGSGSGTDYTLTISSLEPEDFAVYYCQQWSTYPLTFGQGTKLEIKR | 83.2 nM | 71.5% | 0.175 µg/mL |
| HuEM0004-38-16 (antibody, human IgG1, kappa, L234A L235A, V domains shown, humanized mAb638, human IgG1/kappa) VH: EVQLVQSGAEVKKPGASVKVSCKASGYTFTSFWMHWVRQAPGQGLEWMGNINPRNGATKYNEKFRSRVTMTADTSISTAYMELSRLRSDDTAVYYCAREDYDEIYYAMDSWGQGTTVTVSS VL: ENVLTQSPATLSLSPGERATLSCSASSSVIYMYWFQQKPGQSPRVLIYDTSNLASGVPARFSGSGSGTDYTLTISSLEPEDFAVYYCQQWSTYPLTFGQGTKLEIKR | 41 nM | 102% | 0.027 µg/mL |
| HuEM0004-38-11 (antibody, human IgG1, kappa, L234A L235A, V domains shown, humanized mAb638, human IgG1/kappa) VH: EVQLVQSGAEVKKPGASVKVSCKASGYTFTSFWMHWVRQAPGQGLEWMGNINPRNGATKYNEKFRSRVTMTADTSISTAYMELSRLRSDDTAVYYCAREDYDEIYYAMDSWGQGTTVTVSS VL: ENVLTQSPATLSLSPGERATLSCSASSSVIYMYWFQQKPGQSPRVLIYDTSNLASGIPARFSGSGSGTDYTLTISSLEPEDFAVYYCQQWSTYPLTFGQGTKLEIKR | 65.3 nM | 99.6% | 0.021 µg/mL |
| HuEM0004-38-15 (antibody, human IgG1, kappa, L234A L235A, V domains shown, humanized mAb638, human IgG1/kappa) VH: EVQLVQSGAEVKKPGASVKVSCKASGYTFTSFWMHWVRQAPGQGLEWIGNINPRNGATKYNEKFRSKVTLTADKSISTAYMELSRLRSDDTAVYYCAREDYDEIYYAMDSWGQGTTVTVSS VL: ENVLTQSPATLSLSPGERATLSCSASSSVIYMYWFQQKPGQSPRVLIYDTSNLASGIPARFSGSGSGTDYTLTISSLEPEDFAVYYCQQWSTYPLTFGQGTKLEIKR | 40.9 nM | 97.6% | 0.031 µg/mL |
| HuEM0004-38-20 (antibody, human IgG1, kappa, L234A L235A, V domains shown, humanized mAb638, human IgG1/kappa) VH: EVQLVQSGAEVKKPGASVKVSCKASGYTFTSFWMHWVRQAPGQGLEWIGNINPRNGATKYNEKFRSKVTLTADKSISTAYMELSRLRSDDTAVYYCAREDYDEIYYAMDSWGQGTTVTVSS VL: ENVLTQSPATLSLSPGERATLSCSASSSVIYMYWFQQKPGQSPRVLIYDTSNLASGVPARFSGSGSGTDYTLTISSLEPEDFAVYYCQQWSTYPLTFGQGTKLEIKR | 27.3 nM | 100% | 0.031 µg/mL |
| HuEM0004-38-17 (antibody, human IgG1, kappa, L234A L235A, V domains shown, humanized mAb638, human IgG1/kappa) VH: EVQLVQSGAEVKKPGASVKVSCKASGYTFTSFWMHWVRQAPGQGLEWMGNINPRNGATKYNEKFRSRVTMTADKSISTAYMELSRLRSDDTAVYYCAREDYDEIYYAMDSWGQGTTVTVSS VL: ENVLTQSPATLSLSPGERATLSCSASSSVIYMYWFQQKPGQSPRVLIYDTSNLASGVPARFSGSGSGTDYTLTISSLEPEDFAVYYCQQWSTYPLTFGQGTKLEIKR | 20.4 nM | 103% | 0.044 µg/mL |
